Target: poly(A)-binding protein (PABP), P11940
Test: co-immunoprecipitation with anti-FLAG antibody, Western blot quantified with ImageJ
Details: chain shown with the change; HeLa cells; two independent experiments; parent: est. 1.0; read off a plot

Sequence of poly(A)-binding protein (PABP), P11940 (P11940 whole entry): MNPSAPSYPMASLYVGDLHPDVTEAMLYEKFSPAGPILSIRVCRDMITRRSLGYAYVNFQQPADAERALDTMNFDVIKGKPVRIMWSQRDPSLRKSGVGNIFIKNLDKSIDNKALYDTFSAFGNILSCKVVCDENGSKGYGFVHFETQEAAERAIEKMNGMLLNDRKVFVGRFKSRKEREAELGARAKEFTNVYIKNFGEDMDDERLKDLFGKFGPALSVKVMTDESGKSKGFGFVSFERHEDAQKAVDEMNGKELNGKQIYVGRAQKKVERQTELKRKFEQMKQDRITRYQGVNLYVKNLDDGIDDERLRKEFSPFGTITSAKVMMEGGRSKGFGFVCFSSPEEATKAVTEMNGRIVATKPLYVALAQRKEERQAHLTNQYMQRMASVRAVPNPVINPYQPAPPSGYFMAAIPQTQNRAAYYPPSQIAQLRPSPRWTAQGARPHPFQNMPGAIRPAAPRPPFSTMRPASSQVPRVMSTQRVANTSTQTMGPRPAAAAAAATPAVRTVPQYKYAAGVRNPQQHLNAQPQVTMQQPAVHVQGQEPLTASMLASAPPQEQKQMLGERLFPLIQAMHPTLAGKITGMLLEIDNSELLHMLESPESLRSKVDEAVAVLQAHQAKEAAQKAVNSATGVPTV

B1: FLAG-HA-SBP (FHS)-tagged full-length TNRC6A, wild type, Q8NDV7-2 S1332D; S1346D (protein)
chain: MDADSASSSESERNITIMASGNTGGEKDGLRNSTGLGSQNKFVVGSSSNNVGHGSSTGPWGFSHGAIISTCQVSVDAPESKSESSNNRMNAWGTVSSSSNGGLNPSTLNSASNHGAWPVLENNGLALKGPVGSGSSGINIQCSTIGQMPNNQSINSKVSGGSTHGTWGSLQETCESEVSGTQKVSFSGQPQNITTEMTGPNNTTNFMTSSLPNSGSVQNNELPSSNTGAWRVSTMNHPQMQAPSGMNGTSLSHLSNGESKSGGSYGTTWGAYGSNYSGDKCSGPNGQANGDTVNATLMQPGVNGPMGTNFQVNTNKGGGVWESGAANSQSTSWGSGNGANSGGSRRGWGTPAQNTGTNLPSVEWNKLPSNQHSNDSANGNGKTFTNGWKSTEEEDQGSATSQTNEQSSVWAKTGGTVESDGSTESTGRLEEKGTGESQSRDRRKIDQHTLLQSIVNRTDLDPRVLSNSGWGQTPIKQNTAWDTETSPRGERKTDNGTEAWGSSATQTFNSGACIDKTSPNGNDTSSVSGWGDPKPALRWGDSKGSNCQGGWEDDSAATGMVKSNQWGNCKEEKAAWNDSQKNKQGWGDGQKSSQGWSVSASDNWGETSRNNHWGEANKKSSSGGSDSDRSVSGWNELGKTSSFTWGNNINPNNSSGWDESSKPTPSQGWGDPPKSNQSLGWGDSSKPVSSPDWNKQQDIVGSWGIPPATGKPPGTGWLGGPIPAPAKEEEPTGWEEPSPESIRRKMEIDDGTSAWGDPSKYNYKNVNMWNKNVPNGNSRSDQQAQVHQLLTPASAISNKEASSGSGWGEPWGEPSTPATTVDNGTSAWGKPIDSGPSWGEPIAAASSTSTWGSSSVGPQALSKSGPKSMQDGWCGDDMPLPGNRPTGWEEEEDVEIGMWNSNSSQELNSSLNWPPYTKKMSSKGLSGKKRRRERGMMKGGNKQEEAWINPFVKQFSNISFSRDSPEENVQSNKMDLSGGMLQDKRMEIDKHSLNIGDYNRTVGKGPGSRPQISKESSMERNPYFDKDGIVADESQNMQFMSSQSMKLPPSNSALPNQALGSIAGLGMQNLNSVRQNGNPSMFGVGNTAAQPRGMQQPPAQPLSSSQPNLRAQVPPPLLSPQVPVSLLKYAPNNGGLNPLFGPQQVAMLNQLSQLNQLSQISQLQRLLAQQQRAQSQRSVPSGNRPQQDQQGRPLSVQQQMMQQSRQLDPNLLVKQQTPPSQQQPLHQPAMKSFLDNVMPHTTPELQKGPSPINAFSNFPIGLNSNLNVNMDMNSIKEPQSRLRKWTTVDSISVNTSLDQNSSKHGAISSGFRLEESPFVPYDFMNSSTSPADPPGSIGDGWPRAKDPNGSSSVNWPPEFRPGEPWKGYPNIDPETDPYVTPGSVINNLSINTVREVDHLRDRNSGSSSSLNTTLPSTSAWSSIRASNYNVPLSSTAQSTSARNSDSKLTWSPGSVTNTSLAHELWKVPLPPKNITAPSRPPPGLTGQKPPLSTWDNSPLRIGGGWGNSDARYTPGSSWGESSSGRITNWLVLKNLTPQIDGSTLRTLCMQHGPLITFHLNLPHGNALVRYSSKEEVVKAQKSLHMCVLGNTTILAEFASEEEISRFFAQSQSLTPSPGWQSLGSSQSRLGSLDCSHSFSSRTDLNHWNGAGLSGTNCGDLHGTSLWGTPHYSTSLWGPPSSSDPRGISSPSPINAFLSVDHLGGGGESM
response: 1.4
